From publication PMC12456132

Target: neuraminidase (NA) from A/Brisbane/02/2018 (H1N1), wild type (influenza A virus A/Brisbane/02/2018 (H1N1))
Test: non-reducing SDS-PAGE

neuraminidase (NA) from A/Brisbane/02/2018 (H1N1), wild type (natural protein)
stoichiometry N: 2
